Assay results published in paper PMC12775996 (2025).

Legend:
[1] = target: T1, adenovirus type 11 vector particles (human adenovirus type 11); test: SPR; electrostatic (fast) component of one-to-two model
[2] = target: T2, adenovirus type 13 vector particles (human adenovirus type 13); test: as above
[3] = target: T1, adenovirus type 11 vector particles; test: SPR; hydrophobic (slow) component of one-to-two model
[4] = target: T2, adenovirus type 13 vector particles; test: as above
[5] = target: T3, adenovirus type 5 vector particles (wild-type capsid) (human adenovirus type 5); test: as above
[6] = target: T3, adenovirus type 5 vector particles …; test: SPR; electrostatic (fast) component of one-to-two model
[7] = target: T3, adenovirus type 5 vector particles …; test: SPR; hydrophobic (slow) component of one-to-two model; remark: listed apart in the source

B1: human platelet factor 4 (natural protein)
chain: EAEEDGDLQCLCVKTTSQVRPRHITSLEVIKAGPHCPTAQLIATLKNGRKICLDLQAPLYKKIIKKLLES
[1]
  Kd: 742 nM
  koff: 0.00879 s⁻¹
[2]
  Kd: 774 nM
  koff: 0.00761 s⁻¹
[3]
  Kd: 13.4 nM
  koff: 0.000482 s⁻¹
[4]
  Kd: 12.9 nM
  koff: 0.000363 s⁻¹

B2: human platelet factor 4 (natural protein)
chain: EAEEDGDLQCLCVKTTSQVRPRHITSLEVIKAGPHCPTAQLIATLKNGRKICLDLQAPLYKKIIKKLLES
modifications: wild-type capsid; copies by convention for the Ad5 virion; hexon is the PF4-binding protein; internal proteins IIIa, VI and VIII left out; Y477 is the fiber residue of the paper (AAQ19310.1)
[5]
  koff: 0.00083 s⁻¹
[6]
  koff: 0.0124 s⁻¹
[7]
  Kd: 24.4 nM
